{"source": "the NTF2 design screens of Basanta et al. (2020)"}
{"assay": "protease stability score; higher = more stable; yeast display proteolysis, trypsin and chymotrypsin;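 note: relative to predicted unfolded state with 0 unfolded-like and 1 meaning tenfold more protease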"}
{"sequence": "DIEERDAEEAVRRWLHFLQTGDEDWLREQLDPNTRIDIDGREIHGMEEVVNVLLRESRHLGVDVLSFELRHVDRQGDKIIVYGRIRLRVNGRDTEIEVILYMVKVNGVWLMKSMEFR", "protease stability score": 1.89}
{"sequence": "DREENEIREFIEKLVDAHLTGNFELMDELADPNVRIEIGDKRYHGREEYLRLMHELRIHHVEIDHIEWYNGQVHMHGTVDGVVDGRRHRIHTEMTVEKVNGRWILTEERQL", "protease stability score": 1.69}
{"sequence": "SEEHKMVRDVTEDWLRLLLTGDEERLAELLDPNTRFLINGKEHHGREEAIEEWRHLRVDDFRIKSIDIQYQGEKAYVDIDGRQRGKVNGKKQDRDIKIHFHILKINGRWTIHEVRVEIE", "protease stability score": 1.56}
{"sequence": "SEKEKDSRIAIELSLKLVLTGNPEMNRELVDPHARVEVGEKEYHGRDWVRYQLELLGIDHFEIHHVDMYGEYVDVTLELRVGDKSFRLILHLEKIDGRWIVRKVHVD", "protease stability score": 2.14}
{"sequence": "HEEEERLKEVLELVVESFRTGDFNYLKNLIDPNVRVTVGDKDVHGRDFFVRIMSEMRVTHYEFRHVERFNGQAHIDGELDIRIGDKRERHEIKIITLKINGKWYMETLIIQ", "protease stability score": 1.18}
{"sequence": "SEREKIAELAYRLLKRSSDTGDPHLMQWLMDPNTRIEQGEFEHHGRDAISFWIKRFDHNRHIDVKRIEVQGNKVIMEFDVELDVNGVEIHTELVLISLKVNGQWRMESIKIE", "protease stability score": 0.575}
{"sequence": "RHEERHLEEKLQRLLHAWLTGDEDELTELADPDVRLKINGQHYIGWEQFFKALTDLRREMRIHDLKIKRKEIDGDKLVLDGETDGEINGVKRLHKTEIIIIMIDGRLRRVEFRQH", "protease stability score": 0.618}
{"sequence": "SEEERLIIEVMKDFEHSHRTGDWRRILKNLDPNTRHEFNGVEFHGMEEVVRFWIELKDEIRIHHIEIESINHVGDKAHMNVRRDTEVNGKREDVRVQVDLRVINGRIKSVIIRIE", "protease stability score": 0.844}
{"sequence": "SEEEKETEHVLRLFLEIFHTGDWKTLHELFDPHVRLNVGDKHWIGRENVVEQIRHFLERFKNARFHIHRIHIVGDFNDVRTEITINGRTHDTRLWLQVIDGRIESMEIKMN", "protease stability score": 2.44}
{"sequence": "DERRKLEEDILELMLRVFETGDFDTFIKFADPNTRSDVNGRQYHGREWLAEMWKITLEELGADHFELTSYDVFNGRVHLRIRVHVGDKQRSMTIEIQVINGKVQSIRIDIE", "protease stability score": 1.4}
{"sequence": "SEDEHDSELALRIFIQEVYTGDWKRLADNMDPNVRLEINGVENHGRELAIKNLRRRLEELGVKVSDLKIDDIKVQGDKVNLDGQLNLHVNGRTIIINTEVIFRKVDGRWIIESIRYE", "protease stability score": 1.7}
{"sequence": "DEEERHVRELLQRLINALDTGDWKTIHELFDPHARMEINGQHYHGRETINDKLKEMRVSVHDWEQKHIDTFEGHAVVHTHVHIVYIVNGVKHINDTREMIVFTKINGRWVIESRHVK", "protease stability score": 0.563}
{"sequence": "DETEEDVREAIRKMLHSTRTGDEEDNKKLMDPNVQIDIDGVKYHGWETWVEHMRRVDHLRMKIHSIEVQGNKLIVDGELDQRFNGVQLRFRSELILVKIDGRWLVHSIHFK", "protease stability score": 1.17}
{"sequence": "VETEERLHDIVHSIIRLDETGDEQDFDRLVDPNAKFDIDGKELHGRDNFRHMWARYRRELGVDHIQFKHVFIQGDKIHQERRVTIGDKTYNMHVDLVVIDGRIQHVRYRIR", "protease stability score": 1.56}
{"sequence": "SEEEHITKLALDMWFTSLLTGDEHTFRHLLDPNVRVHIDGREYHGREHWRDLLTYLLTHLGVDHMEFRTRDQDVVGDKITLVTEIIIHVGDKNLSFESELIVAKVDGRWRIRSEDYR", "protease stability score": 0.645}
{"sequence": "SEEERRDEHLMRLWVHLLLTGDEDTLKKLADPDARLVVGDKTFHGMEEVSRIMHEFLRRLGIKHFHDLDFKHVRHINGVAHFNGRLHGIQGEFERNTNIEFVVVVVDGRIKSSEIHWH", "protease stability score": 1.41}
{"sequence": "DESHESLHKMLKVRYEALHTGDESMLNELLDPDARFNVDGRIHHGRERAVRYNERIPNLTTRDLKVHDWKVIGDKIHIDGRLEGHWNGKHHIINEEIIVQKINGKWLIEEVIVR", "protease stability score": 0.109}
{"sequence": "HEMEEMEELAFRLIEESIRTGDFTTLEDLFDPDTRIIIGDKDLHGREALRHLRERIDHLKELRVHRRTFIGDWLDMNLHMTGNVNGVEHRRDVRFIIWKINGQWRIHSVYEV", "protease stability score": 1.38}
{"sequence": "DEHEEEAHKFVELKRRIWKTGDERLKSELADPNVKITFNGKELHGMEELIKVNREMGIKHVQIEDIDFQGNKVMVFGRSNIGDFNNRVEIIAEKYNGKWSLSEVRIH", "protease stability score": 0.322}
{"sequence": "DEEEHELQEAIEILKHDIETGNWERFVKRADPHARIRFNGRDLHGWERMKEVFEHVSKEFQNQKVEFETEHYFDGRVEVIVNIRIGDKNIHMRIISDKINGQWITREVRFH", "protease stability score": 1.41}
{"sequence": "DEEKERSDRLYERFFTAIFTGDEDLIRKLLDPDTRYQIGDKSSHGRDDIYDRIREMRNKVPNLRWDIRHVRIQGEKVHLDVEFNVNGKRDEFHIELDIVNGRLRHIRIEPV", "protease stability score": 1.24}
{"sequence": "SEHETEVMRLAEITVKSFLTGDEDTMHHLLDPHVRSDVNGRHHIGRERWLKVVEDMLRHLRLTTIEIHHVDAINGRLHTDTRVNVHINGQEVILETELIIVIVDGVVKEVHWVVK", "protease stability score": 0.994}
{"sequence": "TEEERHIKEMLELFLEFFKTGNEDLFKELADPHVRLHLNINGKKERVHGMDHAVKWLSQLRVHSFHLKDERAVDGVNEVDQESDVEWNGQRFETTVRLHVYIVNGKLHHLSIEIK", "protease stability score": 1.19}
{"sequence": "SEEDRDRHKALELIRESSRTGNEELTSRLADPHVRLVFNGRDVHGREEMVRYMHEFGIDHLHIDRLHVQGDKIHIEGSNDWNGVVTELHVLMVKVNGRWRIREVEWR", "protease stability score": 1.23}
{"sequence": "DEEDKKVKYFLNEWLHAVKTGDEEHLKRLADPRTYEQVGDKHYHGRETFRRFLHDLLEEMRFHRIHIKFSQMVNGVFYVNGELDGTFDGRRHRTDMRLEFEVVNGRIHELRIEIV", "protease stability score": 1.18}
{"sequence": "SEMENLAREALRIIFHNVLTGDEEEFIRMADPNVRFDINGVEYHGWKRVLQELQRFKGLRIHHIHLEDMDNQGDKIIIYSKLEVHYNGVHTELTVEFISEKVNGRWILRMVVFH", "protease stability score": 2.47}
{"sequence": "QEYDEHIEELWRDFVHAMITGDEDRLSELMDPDTRILVGDKHLVGWDRALRFLHEHIREIRPTDFKLRDIRFFDGRIHVDTEMRLVVNGQEVHKKTHLIVYKYDGRWHIEAIIEH", "protease stability score": 2.24}
{"sequence": "DELERVSERAIKIFLHVFKTGDEHMHERMADPNVRVHVDGQDLHGREETVEHMLHFFERIKNVKIDVEDSKAYGDKVIVHSRLHWNGVTQHVELEMRKVNGRWEVTEIIIH", "protease stability score": 0.1}
{"sequence": "SDEEELYEILLEIELKSAMTGDWRNLKDLLDPDTRIHFNGVEIHGREHAEKHLKRYDVDKIEDVRYRDMRFQGDKARVHGEVRILLQFDGRRMEIDTTIQVINYKVNGVWIIESLHFE", "protease stability score": 1.24}
{"sequence": "DEEEEIARRITELWLTYMMTGDEDALIHMADPNVKSILIINGRHVHYHGREYWTKMLRDLGFKHTRIRRVDLQGDYSRLDIEDDFNGVYTRSELRLKVVNGRFHTIEINIH", "protease stability score": 1.08}
{"sequence": "DETKEAFDRAIEKLSRWMFTGDEDKVDHLMDPDVRIEQGDKELHGMEDARRYLTEIRVKVRDMKITHMRIYDGRIDIDGETHLEVKVGDKHLHIDTRVYIDSYKVDGRWFFHEIRIK", "protease stability score": 0.98}
{"sequence": "DEWEEWLKAILEELRRISHTGDEDEIINNADPNVKIKIGDKLIIGREEFRRIMLELSKHFGITRFEFELHDRRIVGDKIHLDGTSRFNGVDERTTLIIMKVNGRWILRSMHVE", "protease stability score": 1.41}
{"sequence": "DDEEHEARLAVHELREVQRTGDERQLHELIDPDTRFEFPGVTLHGRENMVEWLARIKNLRVESIHERHISIYNGQVDFDMEMHVRDGNKHRTEKWRIIMYKFDGRWSIKSFESR", "protease stability score": 0.961}
{"sequence": "SEKEHIMRRASQLIRDYLITGDWRSLEKLIDPNAQFEVNGRHIHGREEVSRIYLQHLNELGVERIDYIERDSDMQGEKVHTYGDLHVNGVTFHVIIFVLKIDGRWTIKKEIWSDK", "protease stability score": 1.15}
{"sequence": "DEDERDARKITDDYLHHLTTGDWNLMDTLADPHMKMDVNGQEIHGRESMVDLMLEWRFEHTDVHDKHVRSYDGKLEIHLDVHSRVHYNGRTDDTRREITLHIHKIDGRWRLEEVRIHYL", "protease stability score": 0.695}
{"sequence": "DEERELLDHLAKFILSVVRTGDWESMLRMADPNARIQIDGREYHGMDFFIRHWWELGIDHERIDKIDIQGDKLFIHRTLEYDGQEIDSELYIIVINGKLKSIDIRIR", "protease stability score": 0.764}
{"sequence": "SEDEKNVDEFMERMTRLTETGDEDNLRHLMDPNVYLHQGDKVHHGREDVVKAIREIIDNLGVTQVKAEVHSFEVIGDKMDLRGTLEFNGVRWRRHIDIHKVDGRWHLQFVHIE", "protease stability score": 0.251}
{"sequence": "DEHENVMHDAIENIEHMIHTGDEHISERLLDPNVKLDVNGRRFHGWEEFNKWLHHMGADVVDHKRLESQGDKVHTDGRVFFNGREYDSEINSLKVNGRWLITEVRIH", "protease stability score": 0.337}
{"sequence": "DEEKEKAKEFLHEWFRSLETGDEDLLTKLLDPNARMDINGQRFVGRHDIQRFISELREKIPNMQIDFHDQEMTDVNGVVQVDMRVDIHYGDKSSHHRLHVYVLKINGRWINKHIHVRTK", "protease stability score": 1.16}
{"sequence": "SEKEEISRRLLELWLKADATGDEKLLLKLMDPDVRIDVDGVENHGMELVTEFLREERDRIDHKIIEIKEMRVVGDKVHMDIRINIEVNGKENETRVELRLEIIDGKIRSVKIIKR", "protease stability score": 0.733}
{"sequence": "DKDEEDLRHVLHLLSRAFMTGDEDELTKLMDPDVRIYYGDKRLHGREEVTRWIREIRAWVHDSKIRHIRRQGEKIILHGEMDMIFDQGDKEVRTRTEITIHTTKINGRWLLNELELR", "protease stability score": 2.6}
{"sequence": "DEEERDIKIAIEFWIETWLTGDEEKEEELLDPNVRLLINGKELHGRERVVKFLKRHYHRVDHSRIDIRRMHVVDGQVHVETELRVHFDGRELRFDIILHFRKFNGRWEITKIELR", "protease stability score": 2}
{"sequence": "SEDHRDAEKFLRLFMELFKTGDFEELFRLVDPNVRLEINGREFHGRELVKKLLKEEHDRYKNATSEVEIDRIHIQGDWVHADIELRLDYNGKTLRWETHLVMLKVDGRWFVRSYSER", "protease stability score": 2.6}
{"sequence": "SEHEKVYHDAIKIYQDNLKTGDEKRMEKFFDPNVIIHIGDKELVGRELVRHQATELARRVDHVEVHIKHVDVQGEKIRINGEIEIEINGRTIRFETHLVILKVNGRWIIHSEFIL", "protease stability score": 1.04}
{"sequence": "SESEEIAHNFTELLIKTLNTGDEKLYRELADPNARIEINGVELVGWKKANELLQRIDHERVRRVKLKDIEVQGDKVIVRTHEEREINIGDKRLHIRTDVEIIWVKINGKWILHEISVH", "protease stability score": 1.23}
{"sequence": "SEDERLAREVIEILHNIMHTGDEHLLDEMLDPNAKVHFDGKDFHGMDVWIKFLIEIRVDSIHVRRVHSINGVLHVDSELDGTINGKKDIRRTRIIMEKVDGRWRVTEVRYV", "protease stability score": 1.41}
{"sequence": "DEEKRLLEEAARHMVDSWRTGDEEVIERMMDPHDKLILYINGVNFDLHGREIVSRWIKEELDEIRIRINVEDIKVFNGVAFVDGELRVEINGREKRVKEEIILFIIDGRLKSHEIRRH", "protease stability score": 1.23}
{"sequence": "DEEEEHLRTMWEIWMHALRTGDEDFMTNLADPNVRVLILQGDKEEESHGRDELSRLLREIRIEEFTITDVRIQGDKSEADVHVVGQIDGRRTRTKIRISFIIFNGRLHSIRFEIH", "protease stability score": 2.2}
{"sequence": "SEDEEEVRKFLKRLLRATETGNEQVLKELFDPNVRIVIGDKHLIGWDFMHTILRRVDVWVVRHIEIKRIDFQGDKLDIDGHVHYEEQIDGQRVSHKRDVKLIMLKVNGVWMFEYIIIH", "protease stability score": 2.45}
{"sequence": "SDEEHRREKLNRIMLEWWMTGDWKHIEHLADPNVRLEMNIGNKHLDHHGREELSRLIIELLKELGFKHSHLEHVEIQGDKFISIVRLHVNGVHFIVHIESVIINGKLTELRIEIRKV", "protease stability score": 1.21}
